Data: US20260001928A1 (CORTERIA PHARMACEUTICALS, priority 2022, published 2026)
*1 amine or outer side, *2 acyl side, *3 side chain or, on linkers, in order; H or OH if unused. Where no end group is shown, it is not given here. Side-chain parts run from the residue outwards. [ ]: non-standard residue; d: D form. The star is where a group is joined. C18 diacid = O=C(O)CCCCCCCCCCCCCCCCC(=O)*; γGlu = O=C(O)[C@H](CCC(=O)[*:2])N[*:1]; NMeI = CC[C@H](C)[C@H](NC)C(=O)O; Nva = CCC[C@H](N)C(=O)O; AEEA = NCCOCCOCC(=O)O

T1: CRF1R receptor (UniProt P34998 24-415, limits assumed)
T1 sequence (looked up): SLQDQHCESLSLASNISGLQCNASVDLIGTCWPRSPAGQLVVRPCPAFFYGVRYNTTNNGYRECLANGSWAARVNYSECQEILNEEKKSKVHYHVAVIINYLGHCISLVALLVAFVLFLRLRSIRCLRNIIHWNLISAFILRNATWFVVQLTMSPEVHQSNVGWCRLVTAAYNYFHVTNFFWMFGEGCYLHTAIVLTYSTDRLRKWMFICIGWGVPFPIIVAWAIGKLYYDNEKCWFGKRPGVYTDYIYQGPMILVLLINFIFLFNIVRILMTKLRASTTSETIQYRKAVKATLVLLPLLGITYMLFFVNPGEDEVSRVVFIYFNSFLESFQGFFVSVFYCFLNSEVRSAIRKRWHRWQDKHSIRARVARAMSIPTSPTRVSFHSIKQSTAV


Tests used:
CRF1R receptor = target: T1, CRF1R receptor; assay: cell-based or functional assay
[1] = target: human corticotropin-releasing factor 2a (CRF2a receptor) (human), Q13324; assay: cell-based or functional assay
human corticotropin-releasing factor 2a (CRF2a receptor) (human), Q13324, sequence (Q13324 20-411): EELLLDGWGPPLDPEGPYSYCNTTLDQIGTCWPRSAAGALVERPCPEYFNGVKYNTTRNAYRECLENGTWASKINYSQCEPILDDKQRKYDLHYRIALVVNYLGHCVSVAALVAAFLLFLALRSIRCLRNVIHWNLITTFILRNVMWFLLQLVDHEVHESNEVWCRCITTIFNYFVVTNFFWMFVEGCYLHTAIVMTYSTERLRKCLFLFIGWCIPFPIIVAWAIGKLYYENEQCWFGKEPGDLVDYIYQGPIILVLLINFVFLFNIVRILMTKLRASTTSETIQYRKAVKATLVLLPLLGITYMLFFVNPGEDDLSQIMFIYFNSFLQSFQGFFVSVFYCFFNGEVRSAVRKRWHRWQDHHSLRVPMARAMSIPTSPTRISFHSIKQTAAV

| Binder | Emax (% I) (CRF1R receptor) | EC50 [nM] (cAMP) [1] |
| --- | --- | --- |
| [NMeI]VLSLD[dV]PIKLK([AEEA-AEEA-γGlu-C18 diacid])KILLEQEKQKKQREQAETNAQILAQV-NH2 (N-terminus assumed; SMILES CC[C@H](C)[C@H](NC)C(=O)N[C@H](C(=O)N[C@@H](CC(C)C)C(=O)N[C@@H](CO)C(=O)N[C@@H](CC(C)C)C(=O)N[C@@H](CC(=O)O)C(=O)N[C@@H](C(=O)N1CCC[C@H]1C(=O)N[C@H](C(=O)N[C@@H](CCCCN)C(=O)N[C@@H](CC(C)C)C(=O)N[C@@H](CCCCNC(=O)COCCOCCNC(=O)COCCOCCNC(=O)CC[C@H](NC(=O)CCCCCCCCCCCCCCCCC(=O)O)C(=O)O)C(=O)N[C@@H](CCCCN)C(=O)N[C@H](C(=O)N[C@@H](CC(C)C)C(=O)N[C@@H](CC(C)C)C(=O)N[C@@H](CCC(=O)O)C(=O)N[C@@H](CCC(N)=O)C(=O)N[C@@H](CCC(=O)O)C(=O)N[C@@H](CCCCN)C(=O)N[C@@H](CCC(N)=O)C(=O)N[C@@H](CCCCN)C(=O)N[C@@H](CCCCN)C(=O)N[C@@H](CCC(N)=O)C(=O)N[C@@H](CCCNC(=N)N)C(=O)N[C@@H](CCC(=O)O)C(=O)N[C@@H](CCC(N)=O)C(=O)N[C@@H](C)C(=O)N[C@@H](CCC(=O)O)C(=O)N[C@H](C(=O)N[C@@H](CC(N)=O)C(=O)N[C@@H](C)C(=O)N[C@@H](CCC(N)=O)C(=O)N[C@H](C(=O)N[C@@H](CC(C)C)C(=O)N[C@@H](C)C(=O)N[C@@H](CCC(N)=O)C(=O)N[C@H](C(N)=O)C(C)C)[C@@H](C)CC)[C@@H](C)O)[C@@H](C)CC)[C@@H](C)CC)C(C)C)C(C)C) [SEQ ID NO 113] | 6% | 0.35 nM |
| Ac-IVLSLD[dV]PIKLK([AEEA-AEEA-γGlu-C18 diacid])KILLEQEKQKKQREQAETN[Nva]QILAQV-NH2 (SMILES CCC[C@H](NC(=O)[C@H](CC(N)=O)NC(=O)[C@@H](NC(=O)[C@H](CCC(=O)O)NC(=O)[C@H](C)NC(=O)[C@H](CCC(N)=O)NC(=O)[C@H](CCC(=O)O)NC(=O)[C@H](CCCNC(=N)N)NC(=O)[C@H](CCC(N)=O)NC(=O)[C@H](CCCCN)NC(=O)[C@H](CCCCN)NC(=O)[C@H](CCC(N)=O)NC(=O)[C@H](CCCCN)NC(=O)[C@H](CCC(=O)O)NC(=O)[C@H](CCC(N)=O)NC(=O)[C@H](CCC(=O)O)NC(=O)[C@H](CC(C)C)NC(=O)[C@H](CC(C)C)NC(=O)[C@@H](NC(=O)[C@H](CCCCN)NC(=O)[C@H](CCCCNC(=O)COCCOCCNC(=O)COCCOCCNC(=O)CC[C@H](NC(=O)CCCCCCCCCCCCCCCCC(=O)O)C(=O)O)NC(=O)[C@H](CC(C)C)NC(=O)[C@H](CCCCN)NC(=O)[C@@H](NC(=O)[C@@H]1CCCN1C(=O)[C@H](NC(=O)[C@H](CC(=O)O)NC(=O)[C@H](CC(C)C)NC(=O)[C@H](CO)NC(=O)[C@H](CC(C)C)NC(=O)[C@@H](NC(=O)[C@@H](NC(C)=O)[C@@H](C)CC)C(C)C)C(C)C)[C@@H](C)CC)[C@@H](C)CC)[C@@H](C)O)C(=O)N[C@@H](CCC(N)=O)C(=O)N[C@H](C(=O)N[C@@H](CC(C)C)C(=O)N[C@@H](C)C(=O)N[C@@H](CCC(N)=O)C(=O)N[C@H](C(N)=O)C(C)C)[C@@H](C)CC) [SEQ ID NO 105] | 10% | 0.87 nM |
